Measured values reported in patent publication US20230057847A1, “GLP2 RECEPTOR AGONISTS AND METHODS OF USE” (The Scripps Research Institute, priority 2019, published 2023).
Bridges are numbered along the chain shown (N, C = ends). Where no end group is shown, it is not given here. [ ]: non-standard residue; d: D form. Nle = CCCC[C@H](N)C(=O)O; L5A = not defined here; A1 = not defined here; K1 = not defined here; K5 = not defined here; Aib = CC(C)(N)C(=O)O

B1: Conjugate 13: GLP2-2G-10Nle-12S-13L-1K-EX4 (SEQ ID NO. 12) with staple K5 at positions 17, 24 (peptide)
peptide: HGDGSFSDE[Nle]NSLLDNKAARDFIKWLIQTKITDPSSGAPPPS
modifications: bridge 17-24; not fully specified (bridges); ends not checked
B2: Conjugate 5: GLP2-2G-10Aib-1-EX4 (SEQ ID NO. 5) with staple L5A at positions 17, 24 (peptide)
peptide: HGDGSFSDE[Aib]NTILDNCAARDFICWLIQTKITDPSSGAPPPS
modifications: linker 17-24 via L5A; reading uncertain
B3: Conjugate 12: GLP2-2G-10Nle-11f-1K-EX4 (SEQ ID NO. 11) with staple K5 at positions 17, 24 (peptide)
peptide: HGDGSFSDE[Nle][dF]TILDNKAARDFIKWLIQTKITDPSSGAPPPS
modifications: bridge 17-24; not fully specified (bridges); ends not checked
B4: Conjugate 18: GLP2-2G-11f-1K-EX4 (SEQ ID NO. 17) with staple K5 at positions 17, 24 (peptide)
peptide: HGDGSFSDEM[dF]TILDNKAARDFIKWLIQTKITDPSSGAPPPS
modifications: linker 17-24 via K5; reading uncertain
B5: Conjugate 14: GLP2-2G-10Nle-13A-14Nle-1K-EX4 (SEQ ID NO. 13) with staple K5 at positions 17, 24 (peptide)
peptide: HGDGSFSDE[Nle]NTA[Nle]DNKAARDFIKWLIQTKITDPSSGAPPPS
modifications: linker 17-24 via K5; reading uncertain
B6: Conjugate 15: GLP2-2G-10Nle-13Nle-14Nle-1K-EX4 (SEQ ID NO. 14) with staple K5 at positions 17, 24 (peptide)
peptide: HGDGSFSDE[Nle]NT[Nle][Nle]DNKAARDFIKWLIQTKITDPSSGAPPPS
modifications: linker 17-24 via K5; reading uncertain
B7: Conjugate 24: GLP2-2G-10Nle-5K-EX4 (SEQ ID NO. 19) with staple K5 at positions 9, 16 (peptide)
peptide: HGDGSFSDK[Nle]NTILDKLAARDFINWLIQTKITDPSSGAPPPS
modifications: linker 9-16 via K5; reading uncertain
B8: Conjugate 16: GLP2-2G-10Nle-11A-13A-14Nle-16A-1K-EX4 (SEQ ID NO. 15) with staple K5 at positions 17, 24 (peptide)
peptide: HGDGSFSDE[Nle]ATA[Nle]DAKAARDFIKWLIQTKITDPSSGAPPPS
modifications: linker 17-24 via K5; reading uncertain
B9: Conjugate 10: GLP2-2G-6-EX4 (SEQ ID NO. 9) with staple L5A at positions 11, 18 (peptide)
peptide: HGDGSFSDEMCTILDNLCARDFINWLIQTKITDPSSGAPPPS
modifications: linker 11-18 via L5A; ends not checked
B10: Conjugate 20: GLP2-2G-1K-EX4 (SEQ ID NO. 16) with staple A1 at positions 17, 24 (peptide)
peptide: HGDGSFSDEMNTILDNKAARDFIKWLIQTKITDPSSGAPPPS
modifications: bridge 17-24 via A1; ends not checked
B11: Conjugate 19: GLP2-2G-1K-EX4 (SEQ ID NO. 16) with staple K1 at positions 17, 24 (peptide)
peptide: HGDGSFSDEMNTILDNKAARDFIKWLIQTKITDPSSGAPPPS
modifications: bridge 17-24 via K1; ends not checked
B12: Conjugate 25: GLP2-2G-1Orn-EX4 (SEQ ID NO. 20) with staple K5 at positions 17, 24 (peptide)
peptide: HGDGSFSDEMNTILDNXAARDFIXWLIQTKITDPSSGAPPPS
modifications: Orn at 17 and 24; staple K5 attached at positions 17, 24 (ornithines)
B13: Conjugate 17: GLP2-2G-1K-EX4 (SEQ ID NO. 16) with staple K5 at positions 17, 24 (peptide)
peptide: HGDGSFSDEMNTILDNKAARDFIKWLIQTKITDPSSGAPPPS
modifications: bridge 17-24; not fully specified (bridges); ends not checked
B14: Conjugate 23: GLP2-2G-5K-EX4 (SEQ ID NO. 18) with staple K5 at positions 9, 16 (peptide)
peptide: HGDGSFSDKMNTILDKLAARDFINWLIQTKITDPSSGAPPPS
modifications: bridge 9-16; not fully specified (bridges); ends not checked
B15: Conjugate 3: GLP2-2G-10L-1-EX4 (SEQ ID NO. 3) with staple L5A at positions 17, 24 (peptide)
peptide: HGDGSFSDELNTILDNCAARDFICWLIQTKITDPSSGAPPPS
modifications: linker 17-24 via L5A; reading uncertain

biological target: T1, human GLP-2R (human, UniProt O95838 1-553); experiment: cell-based or functional assay
T1 sequence (looked up): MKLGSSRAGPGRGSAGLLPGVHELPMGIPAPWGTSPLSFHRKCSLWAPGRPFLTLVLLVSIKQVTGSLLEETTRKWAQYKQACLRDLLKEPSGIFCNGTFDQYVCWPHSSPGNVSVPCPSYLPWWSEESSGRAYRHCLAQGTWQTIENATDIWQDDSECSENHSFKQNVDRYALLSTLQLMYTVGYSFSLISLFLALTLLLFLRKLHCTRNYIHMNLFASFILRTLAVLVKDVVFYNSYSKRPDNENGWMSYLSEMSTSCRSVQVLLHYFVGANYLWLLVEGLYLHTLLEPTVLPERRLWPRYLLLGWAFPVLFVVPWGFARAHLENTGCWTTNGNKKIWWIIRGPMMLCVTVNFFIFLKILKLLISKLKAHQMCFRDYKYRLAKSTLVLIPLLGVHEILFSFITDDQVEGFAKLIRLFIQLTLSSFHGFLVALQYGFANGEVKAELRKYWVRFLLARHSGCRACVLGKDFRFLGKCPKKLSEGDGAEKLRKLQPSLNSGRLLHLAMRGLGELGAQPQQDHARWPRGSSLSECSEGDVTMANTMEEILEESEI

Q: How did the “GLP-2R - cAMP 0% FBS/nM (EC50, CRE-luciferase reporter)” value (“GLP-2R - cAMP 0% FBS/nM” for short) turn out when B1 was run?
A: The value was 3.78 nM.

Q: For B2, which “GLP-2R - cAMP 0% FBS/nM” value is on record?
A: The value was 8.71 nM.

Q: For B3, which “GLP-2R - cAMP 0% FBS/nM” value is on record?
A: Its value is 2.13 nM.

Q: For B4, which “GLP-2R - cAMP 0% FBS/nM” value is on record?
A: Its value is 1.41 nM.

Q: With B5 as the binder, how does the “GLP-2R - cAMP 0% FBS/nM” value read?
A: Its value is 2.68 nM.

Q: Which “GLP-2R - cAMP 0% FBS/nM” value does the source give for B6 here?
A: The value was 1.99 nM.

Q: With B7 as the binder, how does the “GLP-2R - cAMP 0% FBS/nM” value read?
A: Its value is 8.36 nM.

Q: For B8, which “GLP-2R - cAMP 0% FBS/nM” value is on record?
A: The value was 1.33 nM.

Q: Which “GLP-2R - cAMP 0% FBS/nM” value does the source give for B9 here?
A: Its value is 2.09 nM.

Q: And the “GLP-2R - cAMP 10% FBS/nM (EC50, CRE-luciferase reporter)” value?
A: Its value is 102 nM.

Q: For B10, which “GLP-2R - cAMP 0% FBS/nM” value is on record?
A: The value was 0.09 nM.

Q: B11 was tested. Which “GLP-2R - cAMP 0% FBS/nM” value did it give?
A: Its value is 0.15 nM.

Q: B12 was tested. Which “GLP-2R - cAMP 0% FBS/nM” value did it give?
A: The value was 2.11 nM.

Q: For B13, which “GLP-2R - cAMP 0% FBS/nM” value is on record?
A: Its value is 1.07 nM.

Q: How did the “GLP-2R - cAMP 0% FBS/nM” value turn out when B14 was run?
A: Its value is 1.25 nM.

Q: For B15, which “GLP-2R - cAMP 0% FBS/nM” value is on record?
A: The value was 0.87 nM.
